The target of series [1] is ZIKV NS4A N-terminal peptide (4–58) (Zika virus (strain MR-766)). Briefly: static light scattering; Debye plot of KC/Rθ against protein concentration, Zetasizer Nano-ZS, 25 °C; aqueous solution without detergents or liposomes; n = 5 independent samples per concentration.
Series [2] concerns the molecule itself. Briefly: SEC; Superdex 200 Increase 10/300 GL, 20 mM Tris-HCl, 300 mM NaCl, pH 8, with 4 mM n-decyl-β-D-maltoside. Background: In gel filtration, larger molecules generally elute earlier.

Consider “ZIKV NS4A N-terminal peptide (4–58) (domain or fragment)”, for which, in series [1], the stoichiometry N turned out to be 3.

B1: full-length ZIKV NS4A protein (1–127) (natural protein)
chain: GAALGVMEALGTLPGHMTERFQEAIDNLAVLMRAETGSRPYKAAAAQLPETLETIMLLGLLGTVSLGIFFVLMRNKGIGKMGFGMVTLGASAWLMWLSEIEPARIACVLIVVFLLLVVLIPEPEKQR
notes: Zika virus NS4A protein, strain MR-766, full length, residues 1-127 of NS4A; numbers count on: the mature NS4A protein (127 residues); Vector pNIC28-Bsa4; a TEV protease cleavage site stands between the His6 tag and the protein; No cleavage is described; also called full-length NS4A; source: E. coli BL21 (DE3) Rosetta T1R, purified (Ni-charged IMAC and SEC in 4 mM n-decyl-β-D-maltoside)
In the case of B1, the binding result in series [2] is recorded as “binds”.

Usually stoichiometry N stands for the number of molecules, sites or subunits per partner or assembly.

The values above are taken from PMC8147241, “Trimerization of the N-Terminal Tail of Zika Virus NS4A Protein: A Potential In Vitro Antiviral Screening Assay” (Membranes, 2021).
